Values of other authors as cited in paper PMC7096212.

How the values were obtained:
insulin (Homo sapiens) = insulin (Homo sapiens) (UniProt P01308)
IGF-1 (Homo sapiens) = IGF-1 (Homo sapiens) (UniProt P05019)
[1] = biological target: DILP-5 (Drosophila melanogaster) (UniProt Q7KUD5)
Chain of UniProt Q7KUD5 (Q7KUD5 23-50, chain 1 of 2): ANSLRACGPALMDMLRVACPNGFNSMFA
Chain of UniProt Q7KUD5 (Q7KUD5 84-108, chain 2 of 2): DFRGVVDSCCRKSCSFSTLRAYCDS

Chain of UniProt P05019 (P05019 49-118): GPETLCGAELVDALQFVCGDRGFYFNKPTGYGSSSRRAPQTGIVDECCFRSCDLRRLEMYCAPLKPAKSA
Chain of UniProt P01308 (P01308 90-110): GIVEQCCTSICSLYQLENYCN

IBP (from UniProt Q09024)
Kd (insulin (Homo sapiens)): 135 nM
Kd (IGF-1 (Homo sapiens)): 13.6 nM
Kd [1]: 2 nM
